Measured values taken from paper PMC11578894.

Target: His6–Gp54^Bas11 (phage Bas11)
Assay: ITC; CapRel^SJ46 in the syringe at 200 µM titrated into Gp54^Bas11 in the cell at 10 µM (Gp54^Bas11(G24D) was used at 260 µM); 30 °C; 50 mM HEPES pH 7.5, 500 mM KCl, 500 mM NaCl, 2 mM MgCl2, 1 mM TCEP

In the case of His6–MBP–CapRel^SJ46 (natural protein), the Kd is reported as 800 nM and the stoichiometry N is reported as 1.
